How the values were obtained:
[1] = target: RAD52 (human) (UniProt P43351)
[2] = target: RAD52 (human) (UniProt P43351); remark: listed apart in the source
[3] = target: RAD52 (human) (UniProt P43351); remark: listed apart in the source
[4] = target: T1, His6-RAD52 (Homo sapiens) (UniProt P43351); assay: competition (FRET); settings: 8 nM RAD52 on 1 nM Cy3-dT30-Cy5; ssDNA EMSA: 30 mM Tris-acetate pH 7.5, 1 mM DTT, RT, 0.1% glutaraldehyde; FRET: same buffer + 0.1 mg/ml BSA, 25 C; dsDNA EMSA: 30 mM KPi pH 7.4, 1 mM DTT …; scale: nM base pairs for nearly complete ssDNA release
T1 sequence: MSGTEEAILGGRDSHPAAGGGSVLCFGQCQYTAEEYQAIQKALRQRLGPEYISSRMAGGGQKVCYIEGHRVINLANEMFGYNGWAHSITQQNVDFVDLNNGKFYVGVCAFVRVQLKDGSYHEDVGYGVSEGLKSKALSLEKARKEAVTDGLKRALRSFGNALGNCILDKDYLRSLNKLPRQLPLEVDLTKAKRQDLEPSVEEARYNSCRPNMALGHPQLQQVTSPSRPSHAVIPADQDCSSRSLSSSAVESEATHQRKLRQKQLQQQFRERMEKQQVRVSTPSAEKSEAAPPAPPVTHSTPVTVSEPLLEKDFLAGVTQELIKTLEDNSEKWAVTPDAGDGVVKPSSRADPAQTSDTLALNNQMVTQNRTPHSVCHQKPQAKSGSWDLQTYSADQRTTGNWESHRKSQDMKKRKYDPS

[5] = target: His6-RAD52;DSS1 (Homo sapiens;Homo sapiens) (UniProt P43351+P60896); assay: competition (FRET); settings: 8 nM RAD52-DSS1 on 1 nM Cy3-dT30-Cy5; ssDNA EMSA: 30 mM Tris-acetate pH 7.5, 1 mM DTT, RT, 0.1% glutaraldehyde; FRET: same buffer + 0.1 mg/ml BSA, 25 C; dsDNA EMSA: 30 mM KPi pH 7.4, 1 mM DTT …; scale: nM base pairs for almost complete ssDNA release
His6-RAD52;DSS1 (Homo sapiens;Homo sapiens), sequence (P60896 whole entry, one chain of several): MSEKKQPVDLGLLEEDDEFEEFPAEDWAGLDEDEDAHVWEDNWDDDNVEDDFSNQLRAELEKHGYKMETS

Row | D-loop formation with a 90-mer ssDNA and supercoiled plasmid, RAD52 or RAD52-DSS1 (1:1) at 150-3200 nM: yield (10% for RAD52 alone at 800 nM) [1] | FRET-based annealing of complementary 28-mers, 8 nM RAD52 with 40 nM DSS1, no RPA: initial rate (RAD52 alone 5.2 bp/s) [2] | gel-based single-strand annealing of 3'-overhang substrates, increasing RAD52 or pre-formed RAD52-DSS1 (1:1): maximum yield (optimum at 120 nM complex against 480 nM RAD52 alone) [3] | Substance | binding signal [4] | binding signal [5]
1 | 20% | 17.5 bp/s | 65% | DSS1 (natural protein) |  | 
2 |  |  |  | PhiX174 RF I DNA, ApaLI-linearized | 200 | 50
